From publication PMC6018426, “Crystal structure of the catalytic domain of HIV-1 restriction factor APOBEC3G in complex with ssDNA” come the findings set out here.

Data set [1] addresses CTD2* (A3G-CTD2 E259A), His-tagged (Homo sapiens, UniProt Q9HC16 191-384, P200A;L234K;N236A;C243A;P247K;E259A;F310K;Q318K;C321A;Q322A;C356A). Nature of the data set: MST; Zn2+ (20 uM ZnCl2); 20 mM Bis-Tris pH 6.5, 100 mM NaCl, 1 mM DTT, 0.002% Tween 20; ZnCl2 20 uM (MST) or 10 uM (EMSA); MST incubated at 4 C, measured at room temperature; EMSA incubated 1 h at room temperature, gel at 4 C. To be noted: protein: recombinant; tags: poly-His (pET-28a), RED-tris-NTA dye. (In EMSA bound probe runs differently from free probe, usually more slowly.)

The target of data set [2] is CTD2* (A3G-CTD2 E259A), GST-purified (Homo sapiens, UniProt Q9HC16 191-384, P200A;L234K;N236A;C243A;P247K;E259A;F310K;Q318K;C321A;Q322A;C356A). In words: competition; EMSA; unlabeled competitor 25-2500 nM against N2; band not affected; 20 mM Bis-Tris pH 6.5, 100 mM NaCl, 1 mM DTT, 0.002% Tween 20; ZnCl2 20 uM (MST) or 10 uM (EMSA); MST incubated at 4 C, measured at room temperature; EMSA incubated 1 h at room temperature, gel at 4 C. Particulars: protein: recombinant; tags: GST removed by PreScission protease (pGEX6P-1).
Chain of CTD2* (A3G-CTD2 E259A), GST-purified (Q9HC16 191-384 P200A/L234K/N236A/C243A/P247K/E259A/F310K/Q318K/C321A/Q322A/C356A): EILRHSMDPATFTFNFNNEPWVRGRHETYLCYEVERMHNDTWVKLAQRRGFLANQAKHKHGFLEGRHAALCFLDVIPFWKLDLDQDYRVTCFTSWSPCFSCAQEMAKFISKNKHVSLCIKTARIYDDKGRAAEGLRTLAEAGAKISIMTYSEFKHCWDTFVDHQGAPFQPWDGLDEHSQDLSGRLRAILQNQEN

Chain of CTD2* (A3G-CTD2 E259A), His-tagged (Q9HC16 191-384 P200A/L234K/N236A/C243A/P247K/E259A/F310K/Q318K/C321A/Q322A/C356A): as above

For orientation: Kd means a measure of binding affinity in units of concentration. Turning to AATCCCAAA (ssDNA) [9nt substrate ssDNA], in data set [1], the Kd is 55 ± 12 µM. As to AAAAAAAAA (ssDNA) [9nt polyA], the binding result in data set [2] was “no binding”. Consider AAUCCCAAA (ssRNA) [9nt RNA], for which the Kd in data set [1] was 1500 ± 500 µM.
